Results as given in article doi:10.1101/2021.01.04.424714 (bioRxiv, 2021).

B2: bacteriophage T7 gp15 core protein (natural protein, UniProt P03725 1-747, looked up)
chain: MSKIESALQAAQPGLSRLRGGAGGMGYRAATTQAEQPRSSLLDTIGRFAKAGADMYTAKEQRARDLADERSNEIIRKLTPEQRREALNNGTLLYQDDPYAMEALRVKTGRNAAYLVDDDVMQKIKEGVFRTREEMEEYRHSRLQEGAKVYAEQFGIDPEDVDYQRGFNGDITERNISLYGAHDNFLSQQAQKGAIMNSRVELNGVLQDPDMLRRPDSADFFEKYIDNGLVTGAIPSDAQATQLISQAFSDASSRAGGADFLMRVGDKKVTLNGATTTYRELIGEEQWNALMVTAQRSQFETDAKLNEQYRLKINSALNQEDPRTAWEMLQGIKAELDKVQPDEQMTPQREWLISAQEQVQNQMNAWTKAQAKALDDSMKSMNKLDVIDKQFQKRINGEWVSTDFKDMPVNENTGEFKHSDMVNYANKKLAEIDSMDIPDGAKDAMKLKYLQADSKDGAFRTAIGTMVTDAGQEWSAAVINGKLPERTPAMDALRRIRNADPQLIAALYPDQAELFLTMDMMDKQGIDPQVILDADRLTVKRSKEQRFEDDKAFESALNASKAPEIARMPASLRESARKIYDSVKYRSGNESMAMEQMTKFLKESTYTFTGDDVDGDTVGVIPKNMMQVNSDPKSWEQGRDILEEARKGIIASNPWITNKQLTMYSQGDSIYLMDTTGQVRVRYDKELLSKVWSENQKKLEEKAREKALADVNKRAPIVAATKAREAAAKRVREKRKQTPKFIYGRKE

Legend:
[1] = target: B2; experiment: AUC
[2] = target: the molecule itself; experiment: AUC + other: dynamic light scattering

B1: bacteriophage T7 gp16 core protein (natural protein, UniProt P03726 1-1318, looked up)
chain: MDKYDKNVPSDYDGLFQKAADANGVSYDLLRKVAWTESRFVPTAKSKTGPLGMMQFTKATAKALGLRVTDGPDDDRLNPELAINAAAKQLAGLVGKFDGDELKAALAYNQGEGRLGNPQLEAYSKGDFASISEEGRNYMRNLLDVAKSPMAGQLETFGGITPKGKGIPAEVGLAGIGHKQKVTQELPESTSFDVKGIEQEATAKPFAKDFWETHGETLDEYNSRSTFFGFKNAAEAELSNSVAGMAFRAGRLDNGFDVFKDTITPTRWNSHIWTPEELEKIRTEVKNPAYINVVTGGSPENLDDLIKLANENFENDSRAAEAGLGAKLSAGIIGAGVDPLSYVPMVGVTGKGFKLINKALVVGAESAALNVASEGLRTSVAGGDADYAGAALGGFVFGAGMSAISDAVAAGLKRSKPEAEFDNEFIGPMMRLEARETARNANSADLSRMNTENMKFEGEHNGVPYEDLPTERGAVVLHDGSVLSASNPINPKTLKEFSEVDPEKAARGIKLAGFTEIGLKTLGSDDADIRRVAIDLVRSPTGMQSGASGKFGATASDIHERLHGTDQRTYNDLYKAMSDAMKDPEFSTGGAKMSREETRYTIYRRAALAIERPELQKALTPSERIVMDIIKRHFDTKRELMENPAIFGNTKAVSIFPESRHKGTYVPHVYDRHAKALMIQRYGAEGLQEGIARSWMNSYVSRPEVKARVDEMLKELHGVKEVTPEMVEKYAMDKAYGISHSDQFTNSSIIEENIEGLVGIENNSFLEARNLFDSDLSITMPDGQQFSVNDLRDFDMFRIMPAYDRRVNGDIAIMGSTGKTTKELKDEILALKAKAEGDGKKTGEVHALMDTVKILTGRARRNQDTVWETSLRAINDLGFFAKNAYMGAQNITEIAGMIVTGNVRALGHGIPILRDTLYKSKPVSAKELKELHASLFGKEVDQLIRPKRADIVQRLREATDTGPAVANIVGTLKYSTQELAARSPWTKLLNGTTNYLLDAARQGMLGDVISATLTGKTTRWEKEGFLRGASVTPEQMAGIKSLIKEHMVRGEDGKFTVKDKQAFSMDPRAMDLWRLADKVADEAMLRPHKVSLQDSHAFGALGKMVMQFKSFTIKSLNSKFLRTFYDGYKNNRAIDAALSIITSMGLAGGFYAMAAHVKAYALPKEKRKEYLERALDPTMIAHAALSRSSQLGAPLAMVDLVGGVLGFESSKMARSTILPKDTVKERDPNKPYTSREVMGAMGSNLLEQMPSAGFVANVGATLMNAAGVVNSPNKATEQDFMTGLMNSTKELVPNDPLTQQLVLKIYEANGVNLRERRK
stoichiometry N [1]: 6 gp16 monomers per gp15 hexamer

B2
stoichiometry N [2]: 6
